From patent US20240025992A1 come the findings set out here.

The target of this assay is human CD3 (CD3 epsilon as part of the T cell receptor complex) on cells (human) (UniProt P07766). Briefly: flow cytometry on Jurkat cells, 10 nM antibody. For orientation: In flow cytometry, cells or beads pass a laser one at a time.
Sequence of human CD3 (CD3 epsilon as part of the T cell receptor complex) on cells (human) (P07766 23-207 limits assumed, one chain of several): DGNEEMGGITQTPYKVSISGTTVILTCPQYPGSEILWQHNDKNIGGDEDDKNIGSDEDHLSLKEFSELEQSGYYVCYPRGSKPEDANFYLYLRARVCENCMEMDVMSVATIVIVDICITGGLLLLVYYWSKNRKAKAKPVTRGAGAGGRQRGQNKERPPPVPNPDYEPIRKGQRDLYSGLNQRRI

For the substance UCHT1 (antibody), the MFI (arbitrary units) came out at 89200.
